Earlier results in publication PMC7221163.

Target: insulin receptor (HIR) (Homo sapiens) (UniProt P06213)
Experiment: radioreceptor assay

Chain of insulin (P01308 90-110): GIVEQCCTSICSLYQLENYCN

For insulin (from UniProt P01308), the Kd is given as 1.2 nM.
